For this experiment, the target named is prostate-specific membrane antigen (PSMA) (UniProt Q04609 1-750, limits assumed). The experiment in a line: cell-based or functional assay.

Results on one molecule are retold here after patent EP3597215A1 (dated 2020).

Sequence of prostate-specific membrane antigen (PSMA) (Q04609 whole entry): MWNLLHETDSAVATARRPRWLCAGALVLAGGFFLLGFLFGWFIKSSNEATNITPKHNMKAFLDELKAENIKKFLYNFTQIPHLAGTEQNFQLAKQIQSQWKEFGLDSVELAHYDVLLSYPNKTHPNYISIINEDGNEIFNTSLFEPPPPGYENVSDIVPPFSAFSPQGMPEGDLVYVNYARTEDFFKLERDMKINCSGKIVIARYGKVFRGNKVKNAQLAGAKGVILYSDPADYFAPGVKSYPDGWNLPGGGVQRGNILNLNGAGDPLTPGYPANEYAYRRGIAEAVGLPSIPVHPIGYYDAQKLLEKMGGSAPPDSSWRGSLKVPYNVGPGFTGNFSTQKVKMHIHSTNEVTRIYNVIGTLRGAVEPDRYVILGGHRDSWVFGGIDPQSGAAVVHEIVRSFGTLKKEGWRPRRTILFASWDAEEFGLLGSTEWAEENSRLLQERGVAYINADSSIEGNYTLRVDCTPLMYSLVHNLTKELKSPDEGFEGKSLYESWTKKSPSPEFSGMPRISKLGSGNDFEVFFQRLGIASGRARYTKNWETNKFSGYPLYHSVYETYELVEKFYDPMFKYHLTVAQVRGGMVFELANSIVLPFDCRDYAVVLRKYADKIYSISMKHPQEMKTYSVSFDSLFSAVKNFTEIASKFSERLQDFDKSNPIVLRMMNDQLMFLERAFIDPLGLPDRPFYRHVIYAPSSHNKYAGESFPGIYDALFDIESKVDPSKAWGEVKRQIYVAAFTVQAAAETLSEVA

B1: P28BB (anti-PSMA chimeric costimulatory receptor) (other)
chain: EVQLQQSGPELVKPGTSVRISCKTSGYTFTEYTIHWVKQSHGKSLEWIGNINPNNGGTTYNQKFEDKATLTVDKSSSTAYMELRSLTSEDSAVYYCAAGWNFDYWGQGTTVTVSSGGGGSGGGGSGGGGSDIVMTQSHKFMSTSVGDRVSIICKASQDVGTAVDWYQQKPGQSPKLLIYWASTRHTGVPDRFTGSGSGTDFTLTITNVQSEDLADYFCQQYNSYPLTFGAGTMLDLKRAAAIEVMYPPPYLDNEKSNGTIIHVKGKHLCPSPLFPGPSKPFWVLVVVGGVLACYSLLVTVAFIIFWVRSKRSRLLHSDYMNMTPRRPGPTRKHYQPYAPPRDFAAYRSRFSVVKRGRKKLLYIFKQPFMRPVQTTQEEDGCSCRFPEEEEGGCE
As to B1, the “long-term T cell proliferation (expansion over 31 days) of 19z1+P28BB T cells on AAPCs expressing CD19 and PSMA” value is 58 fold.
